T1: RAP-GDNF (UniProt P30533 35-353; P39905 78-211, limits assumed)
T1 construct: also called RAP-GDNF fusion
T1 sequence (looked up): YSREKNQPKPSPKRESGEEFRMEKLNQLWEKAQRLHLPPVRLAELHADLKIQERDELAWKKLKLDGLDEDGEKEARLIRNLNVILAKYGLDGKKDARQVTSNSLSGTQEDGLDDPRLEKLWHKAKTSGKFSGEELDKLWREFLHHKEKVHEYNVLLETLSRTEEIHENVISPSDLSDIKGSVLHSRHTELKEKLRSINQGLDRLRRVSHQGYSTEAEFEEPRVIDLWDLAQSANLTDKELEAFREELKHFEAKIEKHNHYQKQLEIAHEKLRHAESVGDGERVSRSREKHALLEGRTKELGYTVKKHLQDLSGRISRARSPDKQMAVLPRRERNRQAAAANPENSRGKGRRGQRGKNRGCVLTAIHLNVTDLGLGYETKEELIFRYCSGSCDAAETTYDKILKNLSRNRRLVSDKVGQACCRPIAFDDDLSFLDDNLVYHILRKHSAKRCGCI

T2: RAP d3 (human, UniProt P30533 235-353)
T2 construct: also called wild-type RAP d3
T2 sequence: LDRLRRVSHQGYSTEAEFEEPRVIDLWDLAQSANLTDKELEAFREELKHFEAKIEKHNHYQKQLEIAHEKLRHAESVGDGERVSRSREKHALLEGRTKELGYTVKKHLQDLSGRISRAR

B1: LRP2 CR89 (receptor)
chain: not shown
notes: domain: CR89; also called YVWR; not shown: N-terminal hexahistidine and S-peptide of pET30(+)a

What was measured:
RAP-GDNF = molecular target: T1, RAP-GDNF; assay: solid-phase assay, RAP-GDNF coated, serial dilutions of GFRα-1 (FIG. 12)
RAP d3 [1] = molecular target: T2, RAP d3; assay: solid-phase binding assay, CR protein coated, anti-RAP detection
Excerpt: (§1) Alternatively, the affinity differences between MegaRAP I d3 and MegaRAP1 d3 E270K may have been insufficient to alloW the latter to predominate upon iterative panning. A double revertant, T213S, E270K, had binding behavior that was not distinguishable from MegaRAP1 d3 in our assays. […] The binding behavior of the K251E, E270K double revertant implies a strong dependence of the affinity of MegaRAP1 d3 for LRP2 CR89 on the E251K mutation. […] Therefore, the K256A mutation in MegaRAP1 d3 is a crucial determinant of the ability of this variant to discriminate between the two receptor fragments, exerting its effect by negatively impacting affinity for LRP1 CR3-5 while at the same time improving affinity for LRP2 CR89.

RAP d3 [2] = molecular target: T2, RAP d3; assay: as above; remark: listed apart in the source
Procedure: Solid phase binding assays—Purified, refolded CR protein (1 μg) was bound to Nunc Maxisorp™ 96-well plates in TBS pH 8 supplemented with 5 mM CaCl₂ (TBSC) overnight at 4° C. Wells were washed with TBSC and then blocked with TBSC containing 2% bovine serum albumin (BSA). RAP ligands were then incubated with the immobilized receptor at a range of concentrations for 2 hours in the above blocking buffer supplemented with 0.05% Tween-20 at room temperature. Control wells contained no added ligand. As an additional control, to determine whether the absence of calcium affected binding, 10 mM EGTA was included in the incubation medium for some samples. Wells were washed with TBSTC and bound ligands detected with polyclonal anti-RAP (BP41/42, 1:1,000, BioMarin). Excess primary antibody was removed and wells washed before incubation with the secondary antibody, HRP-conjugated goat anti rabbit IgG (Bio-Rad). After washing, TMB substrate solutions (Bio-Rad) were added to detect HRP. Color development was stopped with 1N HCl. Absorption at 450 nm was measured with a microplate spectrophotometer (Molecular Devices). Data were plotted and Kd values derived by non-linear regression with the assumption of single-site binding (GraphPad Prism).
One premise of this work was that amino acids at A, C, A′ and C′ within the calcium-binding loops of a CR pair were key determinants of binding affinity for RAP and would be similarly important for binding of RAP variants. To test this idea, mutant LRP2 CR89 were prepared in which the native, non-canonical residues at these positions were sequentially substituted with the non-native, canonical residues. As defined above, the A, C, A′, C′ string for LRP2 CR89 is YVWR. Mutants included LRP2 CR89 Y1042W (WVWR), LRP2 CR89 V1047D (YDWR), LRP2 CR89 R1088D (YVWD), LRP2 CR89 V1047D R1088D (YDWD), LRP2 CR89 Y1042W V1047D R1088D (WDWD), LRP2 CR89 Y1042W V1047D (WDWR), LRP2 CR89 Y1042W R1088D (WVWD). Binding to both RAP d3 and MegaRAP1 d3 were measured for each LRP2 CR89 mutant by solid-phase assay.

LRP2 CR89 [3] = molecular target: B1; assay: as above
Procedure: (§2) Wells were washed with TBSTC and bound ligands detected with polyclonal anti-RAP (BP41/42, 1:1,000, BioMarin). Excess primary antibody was removed and wells washed before incubation with the secondary antibody, HRP-conjugated goat anti rabbit IgG (Bio-Rad). After washing, TMB substrate solutions (Bio-Rad) were added to detect HRP. Color development was stopped with 1N HCl. Absorption at 450 nm was measured with a microplate spectrophotometer (Molecular Devices). Data were plotted and Kd values derived by non-linear regression with the assumption of single-site binding (GraphPad Prism).
(§3) Next, the binding of RAP d3 and MegaRAP1 d3 proteins to LRP1 CR3-5 and LRP2 CR89 was assessed. […] In all cases, 10 mM EGTA prevented binding of both RAP d3 and MegaRAP1 d3 to CR proteins. Since calcium was the only divalent metal ion present in the binding buffer, this observation is consistent with both RAP d3 and MegaRAP1 d3 binding to calcium-loaded CR pairs. […] Therefore, wild-type RAP d3 and MegaRAP1 d3 have inverted binding preferences for these two receptor fragments.

LRP2 CR89 [4] = molecular target: B1; assay: as above; remark: listed apart in the source
Excerpt: as §1

LRP1 CR3-5 = molecular target: T3, LRP1 CR3-5 (human, UniProt Q07954 852-973); assay: as above
T3 construct: range 852-973; not shown: N-terminal hexahistidine and S-peptide of pET30(+)a
Procedure: as §2, §3

Sequence of LRP2 CR89 (P98164 1025-1102): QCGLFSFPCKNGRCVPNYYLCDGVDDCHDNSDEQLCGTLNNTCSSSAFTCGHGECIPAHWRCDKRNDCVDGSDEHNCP
T3 sequence (Q07954 852-973, form in doubt): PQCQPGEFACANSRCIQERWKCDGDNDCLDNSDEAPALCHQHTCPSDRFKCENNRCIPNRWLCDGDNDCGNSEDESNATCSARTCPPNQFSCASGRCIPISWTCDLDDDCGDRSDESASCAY

Binder | binding result (LRP2 CR89 [3]) | other results
GFRα-1 (receptor) DRLDCVKASDQCLKEQSCSTKYRTLRQCVAGKETNFSLASGLEAKDECRSAMEALKQKSLYNCRCKRGMKKEKNCLRIYWSMYQSLQGNDLLEDSPYEPVNSRLSDIFRVVPFISDVFQQVEHIPKGNNCLDAAKACNLDDICKKYRSAYITPCTTSVSNDVCNRRKCHKALRQFFDKVPAKHSYGMLFCSCRDIACTERRRQTIVPVCSYEEREKPNCLNLQDSCKTNYICRSRLADFFTNCQPESRSVSSCLKENYADCLLAYSGLIGTVMTPNYIDSSSLSVAPWCDCSNSGNDLEECLKFLNFFKDNTCLKNAIQAFGNGSDVTVWQPAFPVQTTTATTTTALRVKNKPLGPAGSENEIPTHVLPPCANLQAQKLKSNVSGNTHLCISNGNYEKEGLGASS | – | Kd (RAP-GDNF): ~5 ng/mL
B1 | – | Kd (RAP d3 [1]): > 300 nM
LRP2 CR89 R1088D (receptor, not shown: small tags and cut ends, also called YVWD) not shown | – | binding result (RAP d3 [2]): no binding
LRP2 CR89 V1047D (receptor, not shown: small tags and cut ends, also called YDWR) PTEQCGLFSFPCKNGRCVPNYYLCDGDDDCHDNSDEQLCGTLNNTCSSSAFTCGHGECIPAHWRCDKRNDCVDGSDEHNCPTHA | – | binding result (RAP d3 [2]): no binding
LRP2 CR89 V1047D R1088D (receptor, not shown: small tags and cut ends, also called YDWD) PTEQCGLFSFPCKNGRCVPNYYLCDGDDDCHDNSDEQLCGTLNNTCSSSAFTCGHGECIPAHWRCDKDNDCVDGSDEHNCPTHA | – | binding result (RAP d3 [2]): no binding
LRP2 CR89 Y1042W (receptor, not shown: small tags and cut ends, also called WVWR) PTEQCGLFSFPCKNGRCVPNYWLCDGVDDCHDNSDEQLCGTLNNTCSSSAFTCGHGECIPAHWRCDKRNDCVDGSDEHNCPTHA | – | binding result (RAP d3 [2]): no binding
MegaRAP1 d3 A256K (ligand, not shown: small tags and cut ends, Revertant of MegaRAP1 d3; also called MegaRAP1 A256K) LDRLRRVSHQGYTTEAKFEEPRVIDLWDLAQSANLTDKELEAFREELKYFKAKIEKHNHYQKQLEIAHEELRHAESVGDGERVSRSREKHALLEGRTKELGYTVKKHLQDLSGRISRAR | no binding | –
MegaRAP1 d3 A256K, E270K (ligand, not shown: small tags and cut ends, Double revertant of MegaRAP1 d3; also called MegaRAP1 A256K, E270K) LDRLRRVSHQGYTTEAKFEEPRVIDLWDLAQSANLTDKELEAFREELKYFKAKIEKHNHYQKQLEIAHEKLRHAESVGDGERVSRSREKHALLEGRTKELGYTVKKHLQDLSGRISRAR | – | fold loss of affinity (LRP2 CR89 [4]): 2 fold
MegaRAP1 d3 E270K (ligand, not shown: small tags and cut ends, Revertant of MegaRAP1 d3; also called MegaRAP1 E270K) LDRLRRVSHQGYTTEAKFEEPRVIDLWDLAQSANLTDKELEAFREELKYFKAKIEAHNHYQKQLEIAHEKLRHAESVGDGERVSRSREKHALLEGRTKELGYTVKKHLQDLSGRISRAR | – | % max (LRP1 CR3-5): 85%
MegaRAP1 d3 K251E (ligand, not shown: small tags and cut ends, Revertant of MegaRAP1 d3; also called MegaRAP1 K251E) LDRLRRVSHQGYTTEAKFEEPRVIDLWDLAQSANLTDKELEAFREELKYFEAKIEAHNHYQKQLEIAHEELRHAESVGDGERVSRSREKHALLEGRTKELGYTVKKHLQDLSGRISRAR | no binding | –
RAP d3 E217K (ligand, not shown: small tags and cut ends, Forward mutant of RAP d3; also called RAP E217K) LDRLRRVSHQGYSTEAKFEEPRVIDLWDLAQSANLTDKELEAFREELKHFEAKIEKHNHYQKQLEIAHEKLRHAESVGDGERVSRSREKHALLEGRTKELGYTVKKHLQDLSGRISRAR | no binding | –
RAP d3 E251K (ligand, not shown: small tags and cut ends, Forward mutant of RAP d3; also called RAP E251K) LDRLRRVSHQGYSTEAEFEEPRVIDLWDLAQSANLTDKELEAFREELKHFKAKIEKHNHYQKQLEIAHEKLRHAESVGDGERVSRSREKHALLEGRTKELGYTVKKHLQDLSGRISRAR | no binding | –
RAP d3 E251K, K270E (ligand, not shown: small tags and cut ends, Forward mutant of RAP d3; also called RAP E251K, K270E) LDRLRRVSHQGYSTEAEFEEPRVIDLWDLAQSANLTDKELEAFREELKHFKAKIEKHNHYQKQLEIAHEELRHAESVGDGERVSRSREKHALLEGRTKELGYTVKKHLQDLSGRISRAR | no binding | –
RAP d3 H249Y (ligand, not shown: small tags and cut ends, Forward mutant of RAP d3; also called RAP H249Y) LDRLRRVSHQGYSTEAEFEEPRVIDLWDLAQSANLTDKELEAFREELKYFEAKIEKHNHYQKQLEIAHEKLRHAESVGDGERVSRSREKHALLEGRTKELGYTVKKHLQDLSGRISRAR | no binding | –
RAP d3 K256A, K270E (ligand, not shown: small tags and cut ends, Forward mutant of RAP d3; also called RAP K256A, K270E) LDRLRRVSHQGYSTEAEFEEPRVIDLWDLAQSANLTDKELEAFREELKHFEAKIEAHNHYQKQLEIAHEELRHAESVGDGERVSRSREKHALLEGRTKELGYTVKKHLQDLSGRISRAR | no binding | –
RAP d3 K270E (ligand, not shown: small tags and cut ends, Forward mutant of RAP d3; also called RAP K270E) LDRLRRVSHQGYSTEAEFEEPRVIDLWDLAQSANLTDKELEAFREELKHFEAKIEKHNHYQKQLEIAHEELRHAESVGDGERVSRSREKHALLEGRTKELGYTVKKHLQDLSGRISRAR | no binding | –
